Assay results published in patent US20070065446, “Anti-bambi antibody and diagnostic or remedy for colon cancer and liver cancer” (SCIMEDIA LTD., published 2007).

How the values were obtained:
[1] = target: T1, TCF4 (TCF7L2) residues 265-496, GST fusion (Homo sapiens, UniProt Q9NQB0-8 Q9NQB0-8:265-496); experiment: competition; mutant unlabeled competitor does not compete in EMSA; details: tags: N-terminal GST (pGEX-5X-1), E. coli DH5alpha
Description: (§1) Five TCF-4 binding sequences on intron 1 were synthesized (TBE 1-5) and radioactively labeled, and shift assay was used to investigate whether they bound with GST-TCF.
The oligonucleotide used in preparing the mutant hBAMBI-luciferase construct was used as the mutant competitive molecule.

GST = GST (UniProt P08515 P08515:1-218); experiment: EMSA; GST control; details: tags: pGEX-5X-1 (Pharmacia), E. coli DH5alpha; label: radioactive
Description: as §1

[2] = target: T1, TCF4 (TCF7L2) residues 265-496, GST …; experiment: EMSA; competed by excess unlabeled TBE; details: tags: N-terminal GST (pGEX-5X-1), E. coli DH5alpha; label: radioactive
Description: as §1

Chain of GST (P08515 whole entry, one chain of several): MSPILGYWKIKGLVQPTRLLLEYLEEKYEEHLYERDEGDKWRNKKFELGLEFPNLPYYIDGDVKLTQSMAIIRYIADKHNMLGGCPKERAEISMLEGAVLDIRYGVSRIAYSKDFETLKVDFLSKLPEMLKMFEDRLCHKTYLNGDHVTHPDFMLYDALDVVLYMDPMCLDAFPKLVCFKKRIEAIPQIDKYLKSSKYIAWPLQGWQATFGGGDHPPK
T1 sequence (Q9NQB0 288-519, one chain of several): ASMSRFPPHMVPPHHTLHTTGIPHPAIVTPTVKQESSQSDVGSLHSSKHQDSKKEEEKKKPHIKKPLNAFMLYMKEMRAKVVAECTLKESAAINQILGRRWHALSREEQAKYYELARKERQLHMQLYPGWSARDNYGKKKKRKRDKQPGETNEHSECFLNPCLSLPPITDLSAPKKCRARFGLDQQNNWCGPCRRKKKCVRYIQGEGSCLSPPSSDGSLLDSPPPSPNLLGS

Row | Binder | binding result [1] | binding result (GST) | binding result [2]
1 | TBE5 mutant (dsDNA) DNA 1: CTAAAAGTTCATGCAGTTAAATTTGGG DNA 2: CCCAAATTTAACTGCATGAACTTTTAG | no binding |  | 
2 | TBE1 (dsDNA) DNA 1: GCTGCAGAGGCTTTGTTAGCGGTAG DNA 2: CTACCGCTAACAAAGCCTCTGCAGC |  | no binding | binds
3 | TBE4 mutant (dsDNA) DNA 1: CTGGAAATATAGAAAGCGGGCAGAAC DNA 2: GTTCTGCCCGCTTTCTATATTTCCAG | no binding |  | 
4 | TBE3 mutant (dsDNA) DNA 1: CTCTAAGTGTAGTTATATCTCTGAATG DNA 2: CATTCAGAGATATAACTACACTTAGAG | no binding |  | 
5 | TBE5 (dsDNA) DNA 1: CTAAAAGTTCATGCCTTTGAATTTGGG DNA 2: CCCAAATTCAAAGGCATGAACTTTTAG |  | no binding | binds
6 | TBE1 mutant (dsDNA) DNA 1: GCTGCAGAGGATTGATTAGCGGTAG DNA 2: CTACCGCTAATCAATCCTCTGCAGC | no binding |  | 
7 | TBE3 (dsDNA) DNA 1: CTCTAAGTGTCTTTGTATCTCTGAATG DNA 2: CATTCAGAGATACAAAGACACTTAGAG |  | no binding | binds
8 | TBE2 mutant (dsDNA) DNA 1: CTCTGTGTCTAGTTAAATGTATCTCTG DNA 2: CAGAGATACATTTAACTAGACACAGAG | no binding |  | 
9 | TBE2 (dsDNA) DNA 1: CTCTGTGTCTCTTTGAATGTATCTCTG DNA 2: CAGAGATACATTCAAAGAGACACAGAG |  | no binding | binds
10 | TBE4 (dsDNA) DNA 1: CTGGAAATATCAAAGGCGGGCAGAAC DNA 2: GTTCTGCCCGCCTTTGATATTTCCAG |  | no binding | binds
